According to doi:10.1101/2025.08.05.668721 (bioRxiv, 2025):

Columns and labels:
SEC = molecular target: the molecule itself; test: SEC
crystal structure = molecular target: the molecule itself; test: crystal structure
[1] = molecular target: T1, FGL-1 Fibrinogen-like domain (FD), dimer, C-terminal Avi-tag, biotinylated (human), Q08830; test: BLI
T1 chain: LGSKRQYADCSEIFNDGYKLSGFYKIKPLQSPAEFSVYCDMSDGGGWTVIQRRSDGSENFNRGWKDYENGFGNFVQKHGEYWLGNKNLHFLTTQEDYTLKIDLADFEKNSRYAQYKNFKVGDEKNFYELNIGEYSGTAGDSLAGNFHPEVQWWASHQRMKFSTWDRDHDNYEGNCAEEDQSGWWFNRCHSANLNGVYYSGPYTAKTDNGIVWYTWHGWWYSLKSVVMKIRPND

[2] = molecular target: T2, FGL-1 Fibrinogen-like domain (FD), monomer, C-terminal Avi-tag, biotinylated (human), Q08830; test: BLI
T2 chain: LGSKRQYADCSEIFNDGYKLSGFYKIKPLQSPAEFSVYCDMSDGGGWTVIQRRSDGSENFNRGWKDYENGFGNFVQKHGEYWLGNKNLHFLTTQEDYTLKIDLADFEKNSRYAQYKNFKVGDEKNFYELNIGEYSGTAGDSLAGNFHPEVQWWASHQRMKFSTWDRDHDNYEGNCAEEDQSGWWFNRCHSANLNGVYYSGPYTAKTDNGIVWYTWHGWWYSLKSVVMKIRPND

B1: FGL-1 Fibrinogen-like domain (FD), dimer, C-terminal Avi-tag, biotinylated (domain or fragment, human, UniProt Q08830 74-306, looked up)
chain: LGSKRQYADCSEIFNDGYKLSGFYKIKPLQSPAEFSVYCDMSDGGGWTVIQRRSDGSENFNRGWKDYENGFGNFVQKHGEYWLGNKNLHFLTTQEDYTLKIDLADFEKNSRYAQYKNFKVGDEKNFYELNIGEYSGTAGDSLAGNFHPEVQWWASHQRMKFSTWDRDHDNYEGNCAEEDQSGWWFNRCHSANLNGVYYSGPYTAKTDNGIVWYTWHGWWYSLKSVVMKIRPND
modifications: biotin on the Avi-tag (BirA)
- stoichiometry N (SEC): 2

B2: FGL-1 FD dimer (without Avi-tag) (domain or fragment, human, UniProt Q08830 74-306, looked up)
chain: LGSKRQYADCSEIFNDGYKLSGFYKIKPLQSPAEFSVYCDMSDGGGWTVIQRRSDGSENFNRGWKDYENGFGNFVQKHGEYWLGNKNLHFLTTQEDYTLKIDLADFEKNSRYAQYKNFKVGDEKNFYELNIGEYSGTAGDSLAGNFHPEVQWWASHQRMKFSTWDRDHDNYEGNCAEEDQSGWWFNRCHSANLNGVYYSGPYTAKTDNGIVWYTWHGWWYSLKSVVMKIRPND
- binding result (crystal structure): binds

B3: LAG-3 (soluble analyte in BLI), P18627 23-450 (receptor)
chain: LQPGAEVPVVWAQEGAPAQLPCSPTIPLQDLSLLRRAGVTWQHQPDSGPPAAAPGHPLAPGPHPAAPSSWGPRPRRYTVLSVGPGGLRSGRLPLQPRVQLDERGRQRGDFSLWLRPARRADAGEYRAAVHLRDRALSCRLRLRLGQASMTASPPGSLRASDWVILNCSFSRPDRPASVHWFRNRGQGRVPVRESPHHHLAESFLFLPQVSPMDSGPWGCILTYRDGFNVSIMYNLTVLGLEPPTPLTVYAGAGSRVGLPCRLPAGVGTRSFLTAKWTPPGGGPDLLVTGDNGDFTLRLEDVSQAQAGTYTCHIHLQEQQLNATVTLAIITVTPKSFGSPGSLGKLLCEVTPVSGQERFVWSSLDTPSQRSFSGPWLEAQEAQLLSQPWQCQLYQGERLLGAAVYFTELSSPGAQRSGRAPGALPAGHL
modifications: not checked
- Kd [1]: 16.8 nM
- Kd [2]: 740 nM
